Measured values as given in patent US20160235855A1, “STABLE AQUEOUS PARENTERAL PHARMACEUTICAL COMPOSITIONS OF INSULINOTROPIC PEPTIDES” (SHANGHAI BENEMAE PHARMACEUTICAL CORPORATION, priority 2013, published 2016).

Assay: HPLC analysis of GLP-1 on C18 column (chemical stability)
Format: physicochemical
Method: An investigation method for chemical stability: a test sample was taken, and analyzed on a C18 column (3.5 μm, 300 Å, φ 4.6×50 mm). An analytical method: mobile phase A was 0.1% trifluoroacetic acid, B was the A phase with 80% acetonitrile added therein, the detection wavelength was 280 nm, 60% A and 40% B were balanced for 3 min, and the sample amount was 2 to 5 μL. Elution was performed with linear gradient for 8 min with 40% to 53% of the B phase and 60% to 47% of the A phase. Peak area was calculated using the normalization method. A standard sample was determined with the same method. The peptide concentration in the sample was calculated by comparison with the standard sample, and compared with the determination result at day 0, to calculate the retention of the peptide content in the sample. A higher retention of the peptide content indicated better chemical stability.
The HPLC detection method was performed according to Example 1.
The formulation method and HPLC detection method of the pharmaceutical compositions were performed according to Example 5.

Glucagon-like peptide 1 [GLP-1]
Results of HPLC analysis, retention of the peptide content (pH 3.0, NaCl 0 mg/mL, 35° C., 8 days): 95.46% | Results of HPLC analysis, retention of the peptide content (pH 3.0, NaCl 0 mg/mL, 45° C., 8 days): 87.19% | Results of HPLC analysis, retention of the peptide content (pH 3.0, NaCl 1.17 mg/mL, 35° C., 8 days): 93.69% | Results of HPLC analysis, retention of the peptide content (pH 3.0, NaCl 1.17 mg/mL, 45° C., 8 days): 87.93% | Results of HPLC analysis, retention of the peptide content (pH 3.0, NaCl 8.77 mg/mL, 35° C., 8 days): 95.03% | Results of HPLC analysis, retention of the peptide content (pH 3.0, NaCl 8.77 mg/mL, 45° C., 8 days): 87.86% | Results of HPLC analysis, retention of the peptide content (pH 3.0, NaCl 29.22 mg/mL, 35° C., 8 days): 96.42% | Results of HPLC analysis, retention of the peptide content (pH 3.0, NaCl 29.22 mg/mL, 45° C., 8 days): 91.16% | Results of HPLC analysis, retention of the peptide content (pH 3.5, NaCl 0 mg/mL, 35° C., 8 days): 94.73% | Results of HPLC analysis, retention of the peptide content (pH 3.5, NaCl 0 mg/mL, 45° C., 8 days): 88.66% | Results of HPLC analysis, retention of the peptide content (pH 3.5, NaCl 1.17 mg/mL, 35° C., 8 days): 96.92% | Results of HPLC analysis, retention of the peptide content (pH 3.5, NaCl 1.17 mg/mL, 45° C., 8 days): 92.54% | Results of HPLC analysis, retention of the peptide content (pH 3.5, NaCl 8.77 mg/mL, 35° C., 8 days): 98.06% | Results of HPLC analysis, retention of the peptide content (pH 3.5, NaCl 8.77 mg/mL, 45° C., 8 days): 92.90% | Results of HPLC analysis, retention of the peptide content (pH 3.6, NaCl below 20 mmol/L, 25° C., 30 days): 93.04% | Results of HPLC analysis, retention of the peptide content (pH 3.6, NaCl below 20 mmol/L, 35° C., 30 days): 86.25% | Results of HPLC analysis, retention of the peptide content (pH 3.7, NaCl below 20 mmol/L, 25° C., 30 days): 95.15% | Results of HPLC analysis, retention of the peptide content (pH 3.7, NaCl below 20 mmol/L, 35° C., 30 days): 86.11% | Results of HPLC analysis, retention of the peptide content (pH 3.8, NaCl below 20 mmol/L, 25° C., 30 days): 97.10% | Results of HPLC analysis, retention of the peptide content (pH 3.8, NaCl below 20 mmol/L, 35° C., 30 days): 89.48% | Results of HPLC analysis, retention of the peptide content (pH 3.9, NaCl below 20 mmol/L, 25° C., 30 days): 98.08% | Results of HPLC analysis, retention of the peptide content (pH 3.9, NaCl below 20 mmol/L, 35° C., 30 days): 90.36% | Results of HPLC analysis, retention of the peptide content (pH 4.0, NaCl 0 mg/mL, 35° C., 8 days): 96.07% | Results of HPLC analysis, retention of the peptide content (pH 4.0, NaCl 0 mg/mL, 45° C., 8 days): 92.77% | Results of HPLC analysis, retention of the peptide content (pH 4.0, NaCl 1.17 mg/mL, 35° C., 8 days): 97.43% | Results of HPLC analysis, retention of the peptide content (pH 4.0, NaCl 1.17 mg/mL, 45° C., 8 days): 93.76% | Results of HPLC analysis, retention of the peptide content (pH 4.0, NaCl 8.77 mg/mL, 35° C., 8 days): 98.73% | Results of HPLC analysis, retention of the peptide content (pH 4.0, NaCl 8.77 mg/mL, 45° C., 8 days): Turbid | Results of HPLC analysis, retention of the peptide content (pH 4.0, NaCl below 20 mmol/L, 25° C., 30 days): 97.85% | Results of HPLC analysis, retention of the peptide content (pH 4.0, NaCl below 20 mmol/L, 35° C., 30 days): 91.80% | Results of HPLC analysis, retention of the peptide content (pH 4.1, NaCl below 20 mmol/L, 25° C., 30 days): 98.90% | Results of HPLC analysis, retention of the peptide content (pH 4.1, NaCl below 20 mmol/L, 35° C., 30 days): 91.35% | Results of HPLC analysis, retention of the peptide content (pH 4.2, NaCl below 20 mmol/L, 25° C., 30 days): 98.24% | Results of HPLC analysis, retention of the peptide content (pH 4.2, NaCl below 20 mmol/L, 35° C., 30 days): 93.96% | Results of HPLC analysis, retention of the peptide content (pH 4.5, NaCl 0 mg/mL, 35° C., 8 days): 97.23% | Results of HPLC analysis, retention of the peptide content (pH 4.5, NaCl 0 mg/mL, 45° C., 8 days): 92.45% | Results of HPLC analysis, retention of the peptide content (pH 4.5, NaCl 1.17 mg/mL, 35° C., 8 days): 95.29% | Results of HPLC analysis, retention of the peptide content (pH 4.5, NaCl 1.17 mg/mL, 45° C., 8 days): Turbid | Results of HPLC analysis, retention of the peptide content (pH 4.5, NaCl 8.77 mg/mL, 35° C., 8 days): Turbid | Results of HPLC analysis, retention of the peptide content (pH 4.5, NaCl 8.77 mg/mL, 45° C., 8 days): Turbid | Results of HPLC analysis, retention of the peptide content (pH 7.0, NaCl 0 mg/mL, 35° C., 8 days): 94.30% | Results of HPLC analysis, retention of the peptide content (pH 7.0, NaCl 0 mg/mL, 45° C., 8 days): 88.83% | Results of HPLC analysis, retention of the peptide content (pH 7.0, NaCl 1.17 mg/mL, 35° C., 8 days): 93.35% | Results of HPLC analysis, retention of the peptide content (pH 7.0, NaCl 1.17 mg/mL, 45° C., 8 days): 90.43% | Results of HPLC analysis, retention of the peptide content (pH 7.0, NaCl 8.77 mg/mL, 35° C., 8 days): 94.34% | Results of HPLC analysis, retention of the peptide content (pH 7.0, NaCl 8.77 mg/mL, 45° C., 8 days): 92.79% | Results of HPLC analysis, retention of the peptide content (pH 7.0, NaCl 29.22 mg/mL, 35° C., 8 days): 95.83% | Results of HPLC analysis, retention of the peptide content (pH 7.0, NaCl 29.22 mg/mL, 45° C., 8 days): 95.37% | chemical stability (pH 7.0 to 7.5): poor | Results of HPLC analysis, retention of the peptide content (pH 7.5, NaCl 0 mg/mL, 35° C., 8 days): 90.89% | Results of HPLC analysis, retention of the peptide content (pH 7.5, NaCl 1.17 mg/mL, 35° C., 8 days): 91.88% | Results of HPLC analysis, retention of the peptide content (pH 7.5, NaCl 1.17 mg/mL, 45° C., 8 days): 85.88% | Results of HPLC analysis, retention of the peptide content (pH 7.5, NaCl 8.77 mg/mL, 35° C., 8 days): 92.15% | Results of HPLC analysis, retention of the peptide content (pH 7.5, NaCl 8.77 mg/mL, 45° C., 8 days): 87.48%
